B1: Emerin (Homo sapiens), P50402 (parent)
chain: MDNYADLSDTELTTLLRRYNIPHGPVVGSTRRLYEKKIFEYETQRRRLSPPSSSAASSYSFSDLNSTRGDADMYDLPKKEDALLYQSKGYNDDYYEESYFTTRTYGEPESAGPSRAVRQSVTSFPDADAFHHQVHDDDLLSSSEEECKDRERPMYGRDSAYQSITHYRPVSASRSSLDLSYYPTSSSTSFMSSSSSSSSWLTRRAIRPENRAPGAGLGQDRQVPLWGQLLLFLVFVIVLFFIYHFMQAEEGNPF

Variants of: B1
Details: with acts_rabit ACTA1, P68135

effect of a mutation on the interaction	Variant
disrupting interaction	MDNYADLSDTELTTLLRRYNIPHGPVVGSTRRLYEKKIFEYETQRRRLSPPSSSAASSYSFSDLNSTRGDADMYDLPKKEDALLYQSKGYNDDYYEESYFTTRTYGEPESAGPSRAVRQSVTSFPDADAFHHHVHDDDLLSSSEEECKDRERPMYGRDSAYQSITHYRPVSASRSSLDLSYYPTSSSTSFMSSSSSSSSWLTRRAIRPENRAPGAGLGQDRQVPLWGQLLLFLVFVIVLFFIYHFMQAEEGNPF [Q133H]

Source: IntAct's records for PubMed 15328537
